Assay results as given in the DeepSol protein solubility set.

Test: soluble on expression in E. coli; label from the status in PepcDB or PDB records

| Sequence | soluble on expression in E. coli |
| --- | --- |
| MSTTTDYDDNDVKIITKPVQSKNPVLIEGFPGIGLVGNIASQHIIEELNMEYIGSIDSRYFPSIAVLYEGLINMPVRIYENVEHNLIIVISDIPISHSVSYDVSNALVDWAEAINVKEIASIAGIAIMDGGHKVFGAATTPEMLDKIRDKVEIFQMGTISGISGSVMAECLLRGIPAISLLGATRTQNPDPRAASSVIGVLNELYGLSISTDRLIEQAERIEIELQRLAEDVQATERKGEVKKEFPMYG | soluble |
| MSTTVEKIKAIEDEMARTQKNKATSFHLGQLKAKLAKLRRELLTSASSGSGGGAGIGFDVARTGVASVGFVGFPSVGKSTLLSKLTGTESEAAEYEFTTLVTVPGVIRYKGAKIQMLDLPGIIDGAKDGRGRGKQVIAVARTCNLLFIILDVNKPLHHKQIIEKELEGVGIRLNKTPPDILIKKKEKGGISITNTVPLTHLGNDEIRAVMSEYRINSAEIAFRCDATVDDLIDVLEASSRRYMPAIYVLNKIDSLSIEELELLYRIPNAVPISSGQDWNLDELLQVMWDRLNLVRIYTKPKGQIPDFTDPVVLRSDRCSVKDFCNQIHKSLVDDFRNALVYGSSVKHQPQYVGLSHILEDEDVVTILKK | soluble |
| MSTYEGRWKTVKVEIEDGIAFVILNRPERRNAMSPTLNREMIDVLETLEQDPAAGVLVLTGAGEAWTAGMDLKEYFREVDAGPEILQEKIRREASQWQWKLLRMYAKPTIAMVNGWCFGGGFAPLVACDLAICADEATFGLSEINWGIPPGNLVSKAMADTVGHRQSLYYIMTGKTFGGQKAAEMGLVNESVPLAQLREVTIELARNLLEKNPVVLRAAKHGFKRCRELTWEQNEDYLYAKLDQSRLLDTEGGREQGMKQFLDDKSIKPGLQAYKR | soluble |
| MSTYYQSAPVLVHAHAYQPPLSPPQSPPHGYLPFYTSNPMMCSTSPLYFSPQMVQPLPPQQHYHMYPSTSAGPGMYYTDFNPHYVQIQISQSVSHDKILAGGPKDNCTVARGRKTHVDHRQLSIEKLHPLLLQFKLTTSELETNAYPMRRDGSTKAVSIADTVYTQNKKMFLDDYDMSRNCSRCNKEFKLSPNGTMIRSTGICRYHNRGVAINGKRDTFRKRYSCCNEEFNVALGCKFSDVHVTDQLFKKELSTFVSTPVPVPNDQRSTRVYALDCEMVYTIAGPALARLTMVDMQRNRVLDVFVKPPTDVLDPNTEFSGLTMEQINSAPDTLKTCHQKLFKYVNADTILIGHSLESDLKAMRVVHKNVIDTAILFRSTRDTKVALKVLSAKLLHKNIQGDNEDAIGHDSMEDALTCVDLIFYGLRNPESIAIREANTNC | not soluble |
| MSVDSLPTLFQWARDNLLKEEALAISALEELPIHLFPEMFKVAFTDRHTKVLIAMVSAWPFPCLPVGTLIEDPHLETLKAVLDGLNVLVTGKVHSSRCKLRVLDLRRNVHHDFWSIQTGSHEDNCPAQIVAQKQPVETCPNPRREIPFMVVTDFELTQESFDEWTIYLMQWIQERKSSIHLCCRKLNSCASPVSNVIEIFKLVDLNCILELQLSQWWPEVLEELDPYLEGMNNLHTLMLEGLKPFRFTACEEDQEDEWQSTLPSLLSNFGSLQNLYLNDIYLLEDSLDKWLGCLKTPLKTLSITDCPRLLQSDFECLPNCPNICKLKHLNLNALFLSDVGYEIPGLILEKVTSTLQILELERCGMTDPHFKALMPALSKCSQLLKVSFCHNDISLRVLKTLLCHTAKLSQLTQELYPAPQECYEDYKILKDRFKKLCPELLNILKAKRQPKKVSFTTQTCLKCLHSCHYYYNLEATDCLCQCICQ | not soluble |
| MSVEAEKAVLGTFLECPYLLKETVLTETHFSDPKHRKLFAAMKRIAQQGDEPDIVTLSTTEDVADFGGLSYLNEVSAFANETKFDQYEALVLDEWKEREKRRILVVAAQENWDIDKITTALTRLNEGRITDHHDISDLLHEVAEAPWTPTERKMGAPSGISELDKMLNGFNDGDSIILAARPSMGKTDFMIHFAKSVGWHGYLPIVFSLEMAADKIRDRLIGSIGGFNRMKLRNPYHDLSEEQKRMWIEVIGKASETRMQIFDGAGQSIADIRSKIRKAINRFPDRKPVVFIDYLTLIRPERYYGGNMHLQVTEISRAIKETAKEFSCPIITLAQLSRDVEKRSDKRPLMSDIRESGSIEQDADVVIFLYRDSYYNADADPRVAEVIVAKSRNGAVGTVRVSYNRNTGVIQDLYRP | not soluble |
| MSVEASNQENSLSSFLLKCAFPAGTTPPLLSPPSSSGSYEEAQFSLFVNQNETEQKLFSNQSLANRDPCTIPDELHQEMKSLKKKEEAFKTSLCGFHRRGQKCAYGEKCKFAHSVHELRFPQTKRNHRNYKTVLCNNFSTTGHCKYGIRCQFIHRSMNSTSSNQSNKMENITIDLNVQSDVFRAFALDSTSLLPNWHCSALLQ | not soluble |
| MSVEASRTCFLIDSLLNKKPKEELETEEEDEEEDEEEELSSSEVTSENDMETESASSSASSVGQPKPDFSAFHKIFSNLDFAKLAAVKRNGHHQPMLFRPECFFPLELSKHLHLVQQTFQMNVLQNLGHTLPLPFVPMLKNVAPAQKRLNNKRASYVDHSQKGNLKKYRCDVCDKTFSRSNTLITHKRIHTGEKPFKCEHCGRAFRQPGNLTRHRLTHTTVKPYVCGLCDKAFNRASNLHTHMRTHTNV | not soluble |
| MSVIAITGSASGIGAALKELLARAGHTVIGIDRGQADIEADLSTPGGRETAVAAVLDRCGGVLDGLVCCAGVGVTAANSGLVVAVNYFGVSALLDGLAEALSRGQQPAAVIVGSIAATQPGAAELPMVEAMLAGDEARAIELAEQQGQTHLAYAGSKYAVTCLARRNVVDWAGRGVRLNVVAPGAVETPLLQASKADPRYGESTRRFVAPLGRGSEPREVAEAIAFLLGPQASFIHGSVLFVDGGMDALMRAKTF | soluble |
| MSVKMKKCSREDLQTLQQLSIETFNDTFKEQNSPENMKAYLESAFNTEQLEKELSNMSSQFFFIYFDHEIAGYVKVNIDDAQSEEMGAESLEIERIYIKNSFQKHGLGKHLLNKAIEIALERNKKNIWLGVWEKNENAIAFYKKMGFVQTGAHSFYMGDEEQTDLIMAKTLILEHHHHHH | soluble |
| MSVLDELYREILLDHYQSPRNFGVLPQATKQAGGMNPSCGDQVEVMVLLEGDTIADIRFQGQGCAISTASASLMTEAVKGKKVAEALELSRKFQAMVVEGAPPDPTLGDLLALQGVAKLPARVKCATLAWHALEEALR | soluble |
| MSVQLKCDAVNCVYNRSHLCSAEEIEVQGGETTGGDATFCGTFSSKSLGNFVSSLGNMNYSGSLKQAVSAEPIMDPKVHCNAVNCTYNDQRYCHADQVEIRNEVSHTAEETECQTFYPKMSLEHHHHHH | not soluble |
| MSWDLSTAKPPVVVDTTLRDGSHAHRHQYTVEEARAIAQALDEAGVYAIEVSHGDGLGGSSLQYGFSRTDEMELIRAVRETVRRAKVAALLLPGIGTRKELKEAVEAGIQMVRIATQCTEADISEQHFGMAKEMGLEAVGFLMMSHMRPPEFLAEQARLMEGYGADVVYIVDSAGAMLPEDAYARVKALKEALSRAKVGFHAHNNLGLAIGNTLAALAAGADWVDATLRGYGAGAGNAPLEVLAAVLDKAGLNPGLDVFKLLDAAEYVMGPILHFQPYPDRDSVAIGYAGVYSTFLLHAKRIGKELGVDPLAILLELGRRQAVAGQEDWILRVALELKEKEAGALAD | soluble |
| MSWGTELWDQFDNLEKHTQWGIDILEKYIKFVKERTEIELSYAKQLRNLSKKYQPKKNSKEEEEYKYTSCKAFISNLNEMNDYAGQHEVISENMASQIIVDLARYVQELKQERKSNFHDGRKAQQHIETCWKQLESSKRRFERDCKEADRAQQYFEKMDADINVTKADVEKARQQAQIRHQMAEDSKADYSSILQKFNHEQHEYYHTHIPNIFQKIQEMEERRIVRMGESMKTYAEVDRQVIPIIGKCLDGIVKAAESIDQKNDSQLVIEAYKSGFEPPGDIEFEDYTQPMKRTVSDNSLSNSRGEGKPDLKFGGKSKGKLWPFIKKNKLMSLLTSPHQPPPPPPASASPSAVPNGPQSPKQQKEPLSHRFNEFMTSKPKIHCFRSLKRGLSLKLGATPEDFSNLPPEQRRKKLQQKVDELNKEIQKEMDQRDAITKMKDVYLKNPQMGDPASLDHKLAEVSQNIEKLRVETQKFEAWLAEVEGRLPARSEQARRQSGLYDSQNPPTVNNCAQDRESPDGSYTEEQSQESEMKVLATDFDDEFDDEEPLPAIGTCKALYTFEGQNEGTISVVEGETLYVIEEDKGDGWTRIRRNEDEEGYVPTSYVEVCLDKNAKDS | soluble |
| MSWIERIKSNITPTRKASIPEGVWTKCDSCGQVLYRAELERNLEVCPKCDHHMRMTARNRLHSLLDEGSLVELGSELEPKDVLKFRDSKKYKDRLASAQKETGEKDALVVMKGTLYGMPVVAAAFEFAFMGGSMGSVVGARFVRAVEQALEDNCPLICFSASGGARMQEALMSLMQMAKTSAALAKMQERGLPYISVLTDPTMGGVSASFAMLGDLNIAEPKALIGFAGPRVIEQTVREKLPPGFQRSEFLIEKGAIDMIVRRPEMRLKLASILAKLMNLPAPNPEAPREGVVVPPVPDQEPEALEHHHHHH | not soluble |
| MSWITNYDAAQRELLMQKVQMQMSERRFRHVLGVEETAVALAAKYGADEAKASIAALTHDYAKERPNDEFELIIRRDGFDLALLNYGNEIWHGLVGADIVQRELAIDDEEILQAIRVHTTGAAKMSLLDKIIYVADYIEPGRDFPGVKEAREIALVDLDAAVAYETKHTLLHLIEQEHKIYPKTLETYNQWVVNQK | not soluble |
| MSYLIRVQIPDEPGSLGRVAEAVGLIGGNISSVDVVEAFSNGTVTDDMVVELPAGTMADELITAAHEVEGVEVDSIRPFSGRVDRRGQ | soluble |
| MSYMLPHLHNGWQVDQAILSEEDRVVVIRFGHDWDPTCMKMDEVLYSIAEKVKNFAVIYLVDITEVPDFNKMYELYDPCTVMFFFRNKHIMIDLGTGNNNKINWAMEDKQEMVDIIETVYRGARKGRGLVVSPKDYSTKYRY | soluble |
| MSYNLNLSHNIYKDAKLGTYYFRITYYDKSNTRKYITRKGFKQRKDAVKKCNEMMDELEGVGHLNRLPFDKLVEEYIDWYSARRKTSSVKALKTHTNNHLLPYFKSMDVFKMTTQDVMKFQNKKLKEGHSGDYLKKMHVYLVSLLNHAMKFHELKQNVASLVGNFEIESQKRLNYWTLEQFNQFYEALATQQQKLFFKLLFYSGARKGEIRALTWRDINFDDDFIHINKTDYHGEVTAPKTKSAIRDIYLPTHMMYDIKDYLIWYKENNIYKDDYVLFGTFYKAYSESTIDRW | not soluble |
| MSYSKPLAYPSQKCVIKHMEVNSRFKLSHQSPSIRKIEKSTPLRIDSLTLKLDQCSVKINNILHTFRKEKLPKNMQLPQAFMCLMSKLFCGRRDPIQVKTLSIECKGSLQLPAGLCLKVSHLEILGSGVDKIADDLQPLLRGSKLQSITVNNDFNIHHPIFKTAHLLILKNPNKNLFRATAASNVMVKSTCQFLDLFDKIVELIRNWQSYGQKIGAIWNFSMRQEQFALLSLVQLRKLPGASYKGHEKFSESGRSIIIPIDNSAEVHAFVKKEQDDCNLNVIVRRRQF | soluble |
| MSYTAEMIIRLREEKKEMRNRDFAISIGISEAELIAAYCTIGKAKRLKTDIAVLLENAPQLGTVMALTRNEHAVHEITGCFEKIVQNQHVLLTLGEIDLRIFAKQWKFCFEYEAIVLGKPTKSLHFFDQNGVAIFKLYSKDTTNMAEWNKLVDKLLHEDQSPVLDIPPKAIPNKRDIVELNVEEFRDRWRKMTDVHQLHGIISELKINRHDAVKYVGNEFAHELKREAIEIMLNQVAQQEVPIMCFVGNKGCIQIFSGQIKNIKQMGPWLNVLDKKFHLHLLIPGIKNVWCVRKPTSDGHVTSLEVFDENDEMIIQFFGMRKEGQKEREDWRSLLNSLPQSHAVAVA | not soluble |
